# Measurements: PMC8112865, “In vitro reconstitution reveals major differences between human and bacterial cytochrome c synthases” (eLife, 2021)
# Positions of bridges follow the written chain, without caps; N, C: chain ends. No end group written: not given here.
# B1: heme-attached 16mer (product of the HCCS reaction) (peptide)
# peptide: KGKKIFIMKCSQCHTV
# modifications: linker 10-13 via heme; also: biotin label, position not given here
# notes: stretch of cytochrome c with alpha helix 1 and CXXCH; The product of m6 in the HCCS reaction; source: synthetic peptide (RS-synthesis), heme attached in vitro by GST-HCCS
# Biological target: T1, GST-HCCS (human holocytochrome c synthase, GST-tagged) (human, UniProt P53701 1-268)
# T1 construct: human HCCS (holocytochrome c synthase), recombinant, from pGEX GST:HCCS; Carries non-covalent heme liganded to His154 (about 10% occupied as purified, about 30% after heme loading); also called holocyt c synthase; mitochondrial cyt c synthase
# T1 sequence (looked up): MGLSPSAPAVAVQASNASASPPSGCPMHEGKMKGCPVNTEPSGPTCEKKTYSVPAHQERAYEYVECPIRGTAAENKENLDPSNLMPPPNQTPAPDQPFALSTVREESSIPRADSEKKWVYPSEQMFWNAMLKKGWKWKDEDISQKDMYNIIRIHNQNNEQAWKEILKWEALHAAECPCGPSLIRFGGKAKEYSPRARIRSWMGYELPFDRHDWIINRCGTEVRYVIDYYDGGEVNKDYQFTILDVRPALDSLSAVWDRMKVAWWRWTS
# Test: UV-vis absorption spectroscopy; anaerobic in vitro reaction of purified HCCS with peptide, 5 mM DTT, 37°C, 1 hr; reduced alpha peak at 552-555 nm read as heme-attached peptide still bound to HCCS (550 nm for a free heme-attached peptide)
# Conditions: both partners purified
binder,measurement,value
B1,binding result,binds
